# Data as given in the DeepSol protein solubility set.
# Assay: soluble on expression in E. coli; label from the status in PepcDB or PDB records
row,Sequence,soluble on expression in E. coli
1,MAHHHHHHMCISELRSLRGHGRNVYIIYDVAKEGTPPPRHFASTSGWGMIAVSFPKVTNYDEWEKQLKAARIIMNCPDGMDVKAMCAWMERDGDTDEQTKYWKMVETHMEKVGPIPRHIFYAKGINARFGAVENALEAINSRYADDRFILPGGGLWYAKDPSQKLVRIVRIRGERGNERFRNAPICYFLGSRSANILAKAMSEKDFLLLVWGVRKTISSAYLEKFCLRALIFGRFFSAMAEELKELNSPAHDIQDTVLKANPGAHPTEICEIPGVGKIDAKQNINHRVLYIPMLRDFPLVDCFFFVESPRRTLVGLQMTTAGEHHTTTSTVRQFTEHLSKFFNGWDEFAQGLSWRDYLCAARRQHADEWLAEMWCRRPAECGRC,not soluble
2,MAHHHHHHMDMLGAVVVENSNLTTTLPAPHTLHERPAEGFSPQRRVLLVPLTEAYEHTTGWMVPTEMEGAQLAMSLYVNDTPVSLPPNWQLSPAKEAAAVKTAMAVDITPLVLSIERDLFSLQVIFSGDVAEMEMWRGVIACVLVEEVELAQLGERIVSTYHKRRAPVIRRSPLSSCGERGVVAITEVSVKIQCPITTLTMEIPVRGMYCEHLQCMELAAVLIQCARQNVWNCPLCSAAMKPEDIIVNHRLKDWIASHSREVVAQVEYIVETELGRPLKIVYKAARPEQHSTIEVIDDEEK,not soluble
3,MAHHHHHHMDMLHQIYALEYKRNTQRSDRIRDKDKTKIRILFIGGNEFSLLCFKVIRLIIKYVRNDIVLDHVITKSPRKKGRHLKLKKSHIEEEAEKEKIKIFYYDKIRNDTYMLKNETFDLCISASFGEIFNASFFKNIASNVYTLHPSLLPLYRGASPIQRSLLNNESLFGYSIFLTNLRIDAGPVLIRSPHTFGDAFNFNDIITILFTLGSLHLMRHIFFLANYKLGSTNGELQRTVESPNPSTISTHNNNKHLKIRHLLYDEENITPHNVKKKQFMLHTDIGQDKMNYAWLRNYLMLSSTHNNNTYAPKIKSEERYVCFFCSTALHIHNKVRGFINWPKVECTLYLVHKGGLKAMEVKLIKTSQESGDHISHQHLHQFKHLDALQSHKCFDGIPRKLAIFNRGAINILCKDNSLLKIYKLQRKNKKIMDASSFFNSINGVDLLY,not soluble
4,MAHHHHHHMDPSAFGMMAGRGMGRQTEVRDARDTAETIQISSIALLKMLIHGRAGVPLEVMGLMIGEEIDDYTIRVADVFSMPQTATGQSVEAVDPEYQVHMLDKLKLVGRHENVVGWYHSHPGFGCWLSSEDVMTAAGYENLTPRSVSVVVDPIQSVRGKVVIDAFRTIPQEIMAMRAMGEYVEPRQVTSNIGFLSKPSAVALSHNLNRQYYNLPVTFRKKNHELRLLLNVYRKGWQEGFKLEKAKVYQRETRTSIRELISLSKQAEKYITQGRDEDDLGNVGQINAMSHLQMEAENVIHRNLNQSIGAMINAVVF,not soluble
5,MAHHHHHHMDPYPPSRVEVTVDDSFGRLEGLAEEHSIIEETWRKLMKGLERKILHNGLKFRLHNVVQYDNGKCHLQLGITDYKSSMGVATNVDYFLRSTSDGGTDRRKYLARALGIECFTTTSDEKAVMFCRSSLVSEYPGYYCFPGGHPEPQDILCQLPLSGPATGNHNNIDHNHNSVQNSDLLNDRLRREEAVSQLSGVNPEVIVQHLFDSAVMEVADELGVERTACRNRGLLSIVENMKNMKPDACFWVEVNQTAAEVQARFDSRVGFDAFESVPHSLVVVHLDDIVDCEGAELFIKDCLGGKVTPPSVACWLHGMACYRSLRGTLGKAQTHSFA,not soluble
6,MAHHHHHHMDTEAIKETAIREVCELSKTLKGTPFAITQRWKHIEALISTFERLLRRLELINLLCCEDEDSVSILKLYTQSQIASLEVLMKALMERGPNAAAFAAYAAGRLDEFVAVFTQSVGKTPRTNACVIADSGMRRWDQAAANGCEHNVVGNAAQNFLDLEVLLKTTLLTRGNQKGESKQCPLTKSDLSGYATVDDAPDRIKWAGGLLTVHKMYGWKEDGWSTNGRNVEFIKEAAEQFKEIKKVLEKQLPNGLDSIDALNAFLKREEPDAMMKDAIKTHQGWEEEKDDKTIIEKIKEIFGIGEPCAKIEFIETLIRTNVSARESGCTKQIDLFQLTTRQMEEVKERRLDQLRKTKTEAENYPRDMAKLSALKTNTNTKQGEYGECQFLCKRYKNAKAENEATDAAPNSPAAARKCRGKTENDCKDECKWDGNVCKNSDETSDYSRVCYSPLFPVLLLSLF,not soluble
7,MAHHHHHHMEDITWVRSEVHSWIYDNLRAKWTSLVRQPTKLRTMFSGYRSTPTFVDRVLRRVGIANEIALTAMLRTWGPPELHAFVALYVRLRFPMIVALNKADLSTAADVAAALRQAYPHEVFVLMTARIEWLALQLSRKGYVDYTPGAASLSLKADCGEGADLEKRVRQELHDVTSFFRTTTSSPERLSSSVLRLTTTGVQDVLAAAMEACGVMLVYPVRAFHPVTSLAHCLTFKLGSSAERVFNALVHLQLLEGKLARFEMIDLAPVKRQLHQQLLASLATAPSNEASTPVPAQQQQCAVALPTSVQTLRKTEVIRSSAVLARILSNKRQLA,not soluble
8,MAHHHHHHMEPSVKESVSRIPLLKTKAGPRDGDKWTARLKEEYASLITYVEHNKASDSHWFHLESNPQGTRWYGTCWTYYKNEKYEFEMNFDIPVTYPQAPPEIALPELEGKTVKMYRGGKICMTTHFFPLWARNVPYFGISHVLALGLGPWLSIEVPAIVEEGYLKPASAATVPTTGE,soluble
9,MAHHHHHHMESIKAKCTAKNLVNEKPAQKTPLSISISEKHKAQLREAFDLFDSEGTGRIKALDVKVALCALGYDVSKEELTQLLKQVGGSIVGGVDFNEFYCVLLAKMMQRESRSEAIRAFRLIDVAEKGYISVDDLRPIADSLEMDLTDDELAEMVLFAHPPVGFGKNENDIKEPLTVSEEEFLKLMGRAHVY,soluble
10,MAHHHHHHMETIQELILSEENKTNIAVLNLGTNDRRNAVLILETALHLVEKYLGKIINTSYLYETVPEYIVLDKKESCEKINKDCRIYDVNYINELMQNLEESKYEENKELIDKCEEYETFLKNGKVDNSILKEVNVENYLLECNNIIVKNDEIMKNNLSKYKDKYYTSYFYNLTVVVKTFVNDPLSMLVVIKYIEELMKRENVKEKEKFENRIIDIDILFFNDFTIFMKNIKLEKNMIYKILSKYIHLERDIKNGNDNMSKVNMDKDINLNNNNNIKKKNNNDIDCDCVDQKMNNHVNNKNYINSFRDPQEIINNMVDNIEFLSIPHVYTTHRYSILLCLNDMIPEYKHNVLNNTIRCLYNKYVSRMKEQYNINIKENNKRIYVLKDRISYLKEKTNIVGILNVNYDSFSDGGIFVEPKRAVQRMFEMINEGASVIDIGGESSGPFVIPNPKISERDLVVPVLQLFQKEWNDIKNKIVKCDAKPIISIDTINYNVFKECVDNDLVDILNDISACTNNPEIIKLLKKKNKFYSVVLMHKRGNPHTMDKLTNYDNLVYDIKNYLEQRLNFLVLNGIPRYRILFDIGLGFAKKHDQSIKLLQNIHVYDEYPLFIGYSRKRFIAHCMNDQNVVINTQQKLHDEQQNENKNIVDKSHNWMFQMNYMRKDKDQLLYQKNICGGLAIASYSYYKKVDLIRVHDVLETKSVLDVLTKIDQV,not soluble
11,MAHHHHHHMFGTPVENLTANQIKEELRTLYGVSDFSGCIEQKDLQEKLEKTRETELITHGLKYGPLLQIGNRQSPSGIVTLTHGLGDSANGWESVAVELSRRLPHLLFLLPTASMQPVGINGGAVMNSWYDIRNVSSGNGVTEDAEAIIMSANYLKSLAYTASRRYQVPAGRVVYAGFSQGAVISLAAGLTARIAPAGVAALSGYFAAAEKILPQLCNKSLPVLLCHGTMDNIIPFSAAEKTKETLESLGVGPVTLYSYPMEHSSHPKEINDLEKFLQQVLPGPSSKS,soluble
12,MAHHHHHHMFHGMNKTNTWAVILSSSRYFFNLRHTTNALAMYHLCRKHGMDDDHILVFLSDSYACDPRKPNPATIYGAPAQAEQPNLYGCNIRVDYASYDVGVRRFLGVLQGRYDENTPPSRRLDTDENSNIIIYAAGHSAEKFFKFQDSEFMSSTDIADTLMMMWEQRRYRKLVFLVDTCRALSLCLEIKAPNVVCLASSEAHLDSYSHHLDPPSGFTVITRWTFEFLEVLKDSKCRPENGEVTLLQKSFYDFNYGPERLSLPQPLSEPAHFDAVNRPNAVREWKMDEFFCEQDRDKIPVELRYDLF,not soluble
13,MAHHHHHHMFSLSDTQLGISPMRQFSPSLFRQNKVAEKYRATQGTGIGPQYHQLSDGRLVRPGTSHTKLLPMLEPGETVDWEKLPSYYHWYPKEELHDYIENTTWREIKGRPTGEPLEKRLRKAITGGTFEKDEAPAPDLMPWNSATIPITKFPHERNDEEIIVVDPKTGRIIGMERETYERWKRMMEERRAGLPESDPVEYDQERYVTNKDGVVFDLSKMKYRPIFEGRWNPRRQQSTGRTNPIMT,soluble
14,MAHHHHHHMGELFSIKNLFICSNERSVEELRTAMEGLLKKERAEGAGGGEKEAKEETHPGGKKYEMIKDYLDANKNNVLHFAIYGNNMNNVKFIIENTNLINSINSEEQNGLIISVLNRNTQISKYLIEQNIDYNQKDKHKANALLYSLITQNYEIFNLLMEKKNIDINVNSFEKGNLLSVSIFERNIHVLKKLFNKFICPFVEGSVYPHPLLYITYSSDNELLFLYLTYCMYYCTKDDALYKINTANFDHSREEIYVDLDHRQVICSIWDNSTYDLSAFKDVLNMTDEDGTPLCSTCVNNGNSLGKNIFDYFSAPS,not soluble
15,MAHHHHHHMGFLDGKRILLTGLLSNRSIAYGIAKACKREGAELAFTYVGDRFKDRITEFAAEFGSELVFPCDVADDAQIDALFASLKTHWDSLDGLVHSIGFAPREAIAGDFLDGLTRENFRIAHDISAYSFPALAKAALPMLSDDASLLTLSYLGAERAIPNYNTMGLAKAALEASVRYLAVSLGAKGVRVNAISAGPIKTLAASGIKSFGKILDFVESNSPLKRNVTIEQVGNAGAFLLSDLASGVTAEVMHVDSGFNAVVGGMAGLEE,soluble
16,MAHHHHHHMGGVRIARCNPKLLDFVTWAVMKGCRLFQRVHVTPLGLVATERIPEFDFVAVVPVEATQSLLSIADDPSFALKVSAERHGEPVPFWEDLTRGSFAFLGFLTKALLTGHPRGVQTYLDVLPFDPAMPIGKMADAAQTTKGYKEWAAPLVAQCKVEESDFNAAFRHAYCLFRRHAIPLWSTSDASGSGHPYFQQSPYARRGQGELMGMVPVMDLALHSPQPNAMIGYPDEEMLQWLSLHKKAAVQQEKGYFVMQAFRDIEEGEVISVNKNAYFNFDDDAFEAWFGYPNVSQVPAEGSGELSSGCKPNGGEGAAVNCAL,soluble
17,MAHHHHHHMGTLEAQTQGPGSMRLTVVGANGRMGRELITAIQRRKDVELCAVLVRKGSSFVDKDASILIGSDFLGVRITDDPESAFSNTEGILDFSQPQASVLYANYAAQKSLIHIIGTTGFSKTEEAQIADFAKYTTIVKSGNMSLGVNLLANLVKRAAKALDDDFDIEIYEMHHANKVDSPSGTALLLGQAAAEGRNIMLKNVSVNGRSGHTGKREKGTIGFACSRGGTVIGDHSITFAGENERIVLSHIAQERSIFANGALKAALWAKNHENGLYSMLDVLGLNE,soluble
18,MAHHHHHHMHAEAAAEAAMPVIATLSSRVVRIMGLNPGYMTLQGSNTYLVGTGQERLLIDSGEGVEGYGHLLQKAVAEESTRLGGPVHISKLLLTHWHGDHIGGVETVRRLFPQVQLLKQPSQYAHTEVDALCQVPPEVVKVEGATLQLVHTPGHTDDHLCAFLQEERALFTSDTVLGTGTSVFSSFRDYMASLHVLERMKPERLYPAHGPVVEDGTARIEEIIRHRHTREKQILQVLCERTHGVSALDSEKGLTVRELVDTIYTTIPAALKTAAGTNVFHHVKKLLNEGRVVVRYAPADLVHFLKDATDYTVFGEGADADVKVIERILTEFRVAAAGVSSGAP,soluble
19,MAHHHHHHMHDIGGAELVVAVHQPAAASHGQPFCHEHGKAKTESAGHNLQHAAAIHRNVPKHTRALVVFVARRTPQAVLYGEHGAAADTEVRRKSVHHVRLRPDNAVVHVEHTGQVRTEAALHEDSRARFPATQQRRARHDKPRRQKPDAVQNKRGAVPESRTARGRQHVLRPANRRAQR,soluble
